In patent US20140193915, “COMPOSITIONS AND METHODS FOR CUSTOM SITE-SPECIFIC DNA RECOMBINASES” (Monsanto Technology, LLC, published 2014):

Columns and labels:
[1] = target: T1, pN-TALER IV-1-EE2 (GinL7C7-EE2-TALE13) (synthetic); assay: cell_activity; E. coli; conditions: tags: 6-His
T1 chain: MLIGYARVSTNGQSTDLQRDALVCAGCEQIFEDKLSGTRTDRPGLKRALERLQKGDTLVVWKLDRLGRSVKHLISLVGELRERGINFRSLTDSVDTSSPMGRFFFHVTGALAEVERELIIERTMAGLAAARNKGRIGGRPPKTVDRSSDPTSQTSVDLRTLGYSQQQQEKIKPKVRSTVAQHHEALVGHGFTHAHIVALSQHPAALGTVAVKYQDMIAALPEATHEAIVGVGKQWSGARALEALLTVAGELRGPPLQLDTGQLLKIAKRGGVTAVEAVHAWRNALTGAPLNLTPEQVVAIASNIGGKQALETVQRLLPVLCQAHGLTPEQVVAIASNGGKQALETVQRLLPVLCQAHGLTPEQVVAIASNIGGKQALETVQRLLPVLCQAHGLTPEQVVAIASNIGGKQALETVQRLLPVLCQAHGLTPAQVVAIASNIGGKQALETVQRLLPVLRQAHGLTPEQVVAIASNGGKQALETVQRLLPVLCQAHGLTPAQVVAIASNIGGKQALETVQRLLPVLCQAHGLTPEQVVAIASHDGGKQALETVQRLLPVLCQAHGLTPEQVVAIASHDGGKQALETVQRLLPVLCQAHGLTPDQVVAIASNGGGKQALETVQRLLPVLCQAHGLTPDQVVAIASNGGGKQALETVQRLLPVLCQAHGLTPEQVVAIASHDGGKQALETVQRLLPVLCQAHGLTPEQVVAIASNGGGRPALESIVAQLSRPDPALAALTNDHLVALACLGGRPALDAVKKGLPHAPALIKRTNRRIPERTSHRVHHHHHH

[2] = target: T2, sN-TALER IV-1 (GinH106Y-TALE13) (synthetic); assay: cell_activity; E. coli; sequenced; conditions: tags: 6-His; chain copies: 2 per site, tetramer in synapsis (stated)
T2 chain: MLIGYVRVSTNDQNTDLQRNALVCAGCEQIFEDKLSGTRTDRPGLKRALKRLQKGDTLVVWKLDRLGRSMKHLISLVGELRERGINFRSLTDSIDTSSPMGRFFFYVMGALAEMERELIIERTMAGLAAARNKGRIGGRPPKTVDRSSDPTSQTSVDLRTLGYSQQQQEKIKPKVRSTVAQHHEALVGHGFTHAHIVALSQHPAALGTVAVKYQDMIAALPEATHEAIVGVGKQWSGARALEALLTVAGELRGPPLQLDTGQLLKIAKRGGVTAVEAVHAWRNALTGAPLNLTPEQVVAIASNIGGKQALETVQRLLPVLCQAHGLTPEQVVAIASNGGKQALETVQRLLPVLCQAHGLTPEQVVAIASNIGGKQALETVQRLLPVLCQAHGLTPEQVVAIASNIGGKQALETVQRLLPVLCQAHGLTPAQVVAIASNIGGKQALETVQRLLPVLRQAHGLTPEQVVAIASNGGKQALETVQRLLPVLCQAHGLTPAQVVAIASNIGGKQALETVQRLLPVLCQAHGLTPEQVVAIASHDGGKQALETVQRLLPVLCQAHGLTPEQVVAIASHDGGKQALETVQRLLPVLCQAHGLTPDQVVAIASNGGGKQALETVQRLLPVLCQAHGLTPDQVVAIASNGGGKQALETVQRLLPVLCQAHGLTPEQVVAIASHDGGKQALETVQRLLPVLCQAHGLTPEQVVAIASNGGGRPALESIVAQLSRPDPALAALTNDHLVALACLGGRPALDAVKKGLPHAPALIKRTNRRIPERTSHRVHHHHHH
Protocol: To test for recombination, E. coli DH5alpha cells were co-transformed with different combinations of TALER expression construct and TALER reporter construct pairs (Tables 6 and 7). The N-TALER expression and reporter constructs were in an approximate 1:1 mass ratio during the transformation. The co-transformed bacteria were plated on media with chloramphenicol, kanamycin, and X-gal then incubated at 37° C. for 18 to 36 hours. Control samples consisted of transformations using the reporter construct alone. Control transformants were similarly plated. The bacterial transformation protocol was either heat shock or electroporation per standard molecular biology techniques.
PCR was used to confirm that the predicted recombination had occurred in colonies which were white or sectored. PCR primers were designed so that a PCR product of approximately 877 bp (depending on the length of the spacers) would be produced from the non-recombined reporter constructs, and a PCR product of approximately 470 bp would be produced from reporter constructs that had undergone N-TALER-mediated recombination. Standard colony PCR was performed on white, blue, and sectored colonies from several plates representing different pairs of N-TALER expression construct and reporter construct co-transformation combinations.
To confirm that the recombination occurred as predicted, several of the PCR products were sequenced. Sequencing results for PCR products generated from white colonies from the sN-TALER IV-1 and Gin18TALE+1; sN-TALER IV-1 and Gin20TALE+0; or sN-TALER IV-1 and Gin20TALE+10 reporter constructs are shown in FIG. 7. No mismatches were detected relative to the predicted recombinase core sequence in any of the PCR products sequenced thereby confirming a base-perfect recombination with N-TALERs (the few single-nucleotide mismatches detected in the sN-TALER IV-1 and Gin20TALE+0 combination were rechecked and consequently dismissed as sequencing error).

B1: Gin18TALE+0 (dsDNA)
DNA 1: AGAAGGTATTTATACCAAAACCATGGTTTACATATAAATACCTTCT
DNA 2: AGAAGGTATTTATATGTAAACCATGGTTTTGGTATAAATACCTTCT
For B1, the activity [1] was 1 score.

B2: Gin18TALE+1 (dsDNA)
DNA 1: AGAAGGTATTTATATCCAAAACCATGGTTTACAATATAAATACCTTCT
DNA 2: AGAAGGTATTTATATTGTAAACCATGGTTTTGGATATAAATACCTTCT
B2 showed an activity [2] of 1 score and an activity [1] of 1 score.

B3: Gin20TALE+0 (dsDNA)
DNA 1: AGAAGGTATTTATATCCAAAACCATGGTTTACAGTATAAATACCTTCT
DNA 2: AGAAGGTATTTATACTGTAAACCATGGTTTTGGATATAAATACCTTCT
With B3 the activity [2] was 1 score and the activity [1] was 1 score.
